Data taken from patent US20060110356A1, “Ophthalmic drug delivery system using polymer micelle” (NANOCARRIER KABUSHIKI KAISHA, priority 2003, published 2006).

Assays:
[1] = tested on: choroidal neovascular (CNV) model; assay: Intraocular transfer of fluorescent-labelled PIC micelle in rat CNV model (fluorescence microscopy of frozen sections); type: in vivo, BN rat; settings: intravenous, 400 μL of 5 mg/mL in physiological saline
Procedure: A diblock copolymer having polyethylene glycol (PEG) as a hydrophilic polymer chain, and polyaspartic acid (P(Asp)) as an anionic polymer chain within one molecule was dispersed in water, and mixed with FITC-labelled polylysine (FITC-P(Lys)) to prepare a core-shell type PIC micelle solution (5 mg/mL) having a core of a polylon complex (PIC) consisting of P(Asp) and FITC-P(Lys), and a shell of PEG.
After generally anesthetizing a BN rat by intramuscular administration of 1 mL/kg of a mixture of a 5% ketamine hydrochloride injection and a 2% xylazine hydrochloride injection (7:1), eye drops of a 0.5% tropicamide-0.5% phenylephrine hydrochloride ophthalmic solution were administered to render mydriasis. Then, photocoagulation was carried out with a semiconductor laser photocoagulator. Photocoagulation was carried out on six scattering positions per one eye in a posterior portion of the ocular fundus while focusing on retinal deep layer (coagulation conditions: spot size 75 μm, output 200 mW, coagulation time 0.05 sec) such that irradiation of large retinal vessels was avoided. […]
Following administration, the eyeball was removed after a predetermined time, and a frozen tissue section was prepared. Thereafter, leakage of the fluorescence to the choroidal neovascular site was qualitatively observed by a fluorescence microscope.

skin = settings: rat, in vivo, iv
Procedure: As a comparative control, Photofrin was administered under the same condition.
Four hours after the administration, a xenon lamp was irradiated on the shaved part (wavelength: 377-700 nm, power density: 30 mW/cm^2, irradiation area: 4 cm^2).

photosensitive erethism on the skin (skin)	Substance	toxicity (death of animal) [1]
	FITC-labelled polylysine [FITC-P(Lys)]	the animal died one hour after the administration due to its toxicity
photosensitive erethism was found	Photofrin	
